± gives the standard deviation of the averaged measurements.
Test: total protein half-life in vivo (active degradation + dilution); higher = more stable protein
[1] = E. coli NCM3722 delta-clpP, growth: N-lim chemostat, doubling time 6 h
[2] = wild type E. coli NCM3722, growth: P-lim chemostat, doubling time 12 h
[3] = E. coli NCM3722 delta-clpP delta-lon delta-hslV, growth: N-lim chemostat, doubling time 6 h
[4] = E. coli NCM3722 delta-hslV, growth: N-lim chemostat, doubling time 6 h
[5] = E. coli NCM3722 delta-lon, growth: N-lim chemostat, doubling time 6 h
[6] = E. coli NCM3722 delta-smpB, growth: N-lim chemostat, doubling time 6 h
[7] = wild type E. coli NCM3722, growth: C-lim chemostat, doubling time 3 h
[8] = wild type E. coli NCM3722, growth: C-lim chemostat, doubling time 6 h
[9] = wild type E. coli NCM3722, growth: C-lim chemostat, doubling time 12 h
[10] = wild type E. coli NCM3722, growth: N-lim chemostat, doubling time 6 h
[11] = wild type E. coli NCM3722, growth: N-lim chemostat, doubling time 12 h
[12] = wild type E. coli NCM3722, growth: P-lim chemostat, doubling time 6 h

| Sequence | total protein half-life in vivo [1] [h] | total protein half-life in vivo [2] [h] | total protein half-life in vivo [3] [h] | total protein half-life in vivo [4] [h] | total protein half-life in vivo [5] [h] | total protein half-life in vivo [6] [h] | total protein half-life in vivo [7] [h] | total protein half-life in vivo [8] [h] | total protein half-life in vivo [9] [h] | total protein half-life in vivo [10] [h] | total protein half-life in vivo [11] [h] | total protein half-life in vivo [12] [h] |
| --- | --- | --- | --- | --- | --- | --- | --- | --- | --- | --- | --- | --- |
| MNVIAILNHMGVYFKEEPIRELHRALERLNFQIVYPNDRDDLLKLIENNARLCGVIFDWDKYNLELCEEISKMNENLPLYAFANTYSTLDVSLNDLRLQISFFEYALGAAEDIANKIKQTTDEYINTILPPLTKALFKYVREGKYTFCTPGHMGGTAFQKSPVGSLFYDFFGPNTMKSDISISVSELGSLLDHSGPHKEAEQYIARVFNADRSYMVTNGTSTANKIVGMYSAPAGSTILIDRNCHKSLTHLMMMSDVTPIYFRPTRNAYGILGGIPQSEFQHATIAKRVKETPNATWPVHAVITNSTYDGLLYNTDFIKKTLDVKSIHFDSAWVPYTNFSPIYEGKCGMSGGRVEGKVIYETQSTHKLLAAFSQASMIHVKGDVNEETFNEAYMMHTTTSPHYGIVASTETAAAMMKGNAGKRLINGSIERAIKFRKEIKRLRTESDGWFFDVWQPDHIDTTECWPLRSDSTWHGFKNIDNEHMYLDPIKVTLLTPGMEKDGTMSDFGIPASIVAKYLDEHGIVVEKTGPYNLLFLFSIGIDKTKALSLLRALTDFKRAFDLNLRVKNMLPSLYREDPEFYENMRIQELAQNIHKLIVHHNLPDLMYRAFEVLPTMVMTPYAAFQKELHGMTEEVYLDEMVGRINANMILPYPPGVPLVMPGEMITEESRPVLEFLQMLCEIGAHYPGFETDIHGAYRQADGRYTVKVLKEESKK [P0A9H3] | 5.68 | 11.6 | – | – | – | – | – | – | – | – | – | – |
| MNVNFFVTCIGDALKSRMARDSVLLLEKLGCRVNFPEKQGCCGQPAINSGYIKEAIPGMKNLIAALEDNDDPIISPAGSCTYAVKSYPTYLADEPEWASRAAKVAARMQDLTSFIVNKLGVVDVGASLQGRAVYHPSCSLARKLGVKDEPLTLLKNVRGLELLTFAEQDTCCGFGGTFSVKMAEISGEMVKEKVAHLMEVRPEYLIGADVSCLLNISGRLQREGQKVKVMHIAEVLMSR | 2.8 | 8.05 ± 0.092 | 4.88 ± 0.35 | 3.22 ± 0.43 | 4.91 | 3.17 ± 0.06 | 3.05 ± 0.46 | 4.67 ± 0.46 | 8.01 ± 0.23 | 4.38 ± 0.39 | 6.19 ± 1.3 | 4.49 |
| MNVVILDTGCANLNSVKSAIARHGYEPKVSRDPDVVLLADKLFLPGVGTAQAAMDQVRERELFDLIKACTQPVLGICLGMQLLGRRSEESNGVDLLGIIDEDVPKMTDFGLPLPHMGWNRVYPQAGNRLFQGIEDGAYFYFVHSYAMPVNPWTIAQCNYGEPFTAAVQKDNFYGVQFHPERSGAAGAKLLKNFLEM | 4.08 ± 0.64 | 11.3 ± 0.22 | 5.66 ± 1.5 | 4.08 ± 0.044 | 4.11 ± 0.85 | 4.11 ± 0.27 | 3.16 ± 0.23 | 5.31 ± 0.46 | 10.5 ± 0.7 | 4.46 ± 0.29 | 7.8 ± 1.1 | 5.78 ± 0.17 |
| MNYQMITTDDALASLCEAVRAFPAIALDTEFVRTRTYYPQLGLIQLFDGEHLALIDPLGITDWSPLKAILRDPSITKFLHAGSEDLEVFLNVFGELPQPLIDTQILAAFCGRPMSWGFASMVEEYSGVTLDKSESRTDWLARPLTERQCEYAAADVWYLLPITAKLMVETEASGWLPAALDECRLMQMRRQEVVAPEDAWRDITNAWQLRTRQLACLQLLADWRLRKARERDLAVNFVVREEHLWSVARYMPGSLGELDSLGLSGSEIRFHGKTLLALVEKAQTLPEDALPQPMLNLMDMPGYRKAFKAIKSLITDVSETHKISAELLASRRQINQLLNWHWKLKPQNNLPELISGWRGELMAEALHNLLQEYPQ | 4.41 ± 1.4 | 11.8 ± 1.5 | 4.11 ± 0.93 | 3.88 ± 0.32 | 4.79 ± 1.2 | 3.65 ± 0.37 | > 4 | 5.23 ± 0.24 | 10 ± 0.67 | 3.834 ± 0.0071 | 6.31 ± 1.4 | 5.82 ± 0.58 |
| MPANARSHAVLTTESKVTIRGQTTIPAPVREALKLKPGQDSIHYEILPGGQVFMCRLGDEQEDHTMNAFLRFLDADIQNNPQKTRPFNIQQGKKLVAGMDVNIDDEIGDDE | 2.83 ± 0.037 | 5.24 ± 0.056 | 5.19 ± 0.069 | 3.29 ± 0.22 | 2.97 ± 0.61 | 2.88 ± 0.047 | > 4 | 3.52 ± 0.75 | 5.13 ± 1.2 | 3.11 ± 0.63 | 5.02 ± 0.3 | 2.77 ± 0.39 |
| MPAVIDKALDFIGAMDVSAPTPSSMNESTAKGIFKYLKELGVPASAADITARADQEGWNPGFTEKMVGWAKKMETGERSVIKNPEYFSTYMQEELKALV | 0.88 | 1.25 | 1.25 ± 0.38 | – | – | 0.51 | 0.644 ± 0.18 | 0.706 | – | 0.681 ± 0.18 | 0.727 ± 0.045 | 0.402 |
| MPDAVQAPYPAYRPEPNMQTITIAPPKRSWFSLLSWAVVLAVLVVSWQGAEMAPLTLIKDGGNMATFAADFFPPDFSQWQDYLTEMAVTLQIAVWGTALAVVLSIPFGLMSAENLVPWWVYQPVRRLMDACRAINEMVFAMLFVVAVGLGPFAGVLACWRCLSTPPACSPSCFPKRWKRLSPARWKAFAPPVPTSSKRSSTACCHR [P0DP69] | – | 0.661 ± 0.64 | – | – | – | – | – | – | – | – | – | 0.274 ± 0.32 |
| MPEATPFQVMIVDDHPLMRRGVRQLLELDPGSEVVAEAGDGASAIDLANRLDIDVILLDLNMKGMSGLDTLNALRRDGVTAQIIILTVSDASSDVFALIDAGADGYLLKDSDPEVLLEAIRAGAKGSKVFSERVNQYLREREMFGAEEDPFSVLTERELDVLHELAQGLSNKQIASVLNISEQTVKVHIRNLLRKLNVRSRVAATILFLQQRGAQ | 2.4265 ± 0.00011 | 4.65 ± 0.4 | 5.05 ± 0.31 | 2.17 ± 0.36 | 4.47 ± 1.4 | 2.02 ± 0.099 | 2.08 ± 0.15 | 3.41 ± 0.22 | 5.71 ± 1 | 2.3 ± 0.18 | 2.86 ± 0.24 | 2.62 ± 0.31 |

— the supplement of paper PMC11246515
